Experimental data reported in patent US20210000969A1 (HUALAN GENETIC ENGINEERING, published 2021).

Target: T1, mouse PV-1 protein (mouse, UniProt Q91VC4 1-438, limits assumed)
T1 construct: The form tested is not described
T1 sequence: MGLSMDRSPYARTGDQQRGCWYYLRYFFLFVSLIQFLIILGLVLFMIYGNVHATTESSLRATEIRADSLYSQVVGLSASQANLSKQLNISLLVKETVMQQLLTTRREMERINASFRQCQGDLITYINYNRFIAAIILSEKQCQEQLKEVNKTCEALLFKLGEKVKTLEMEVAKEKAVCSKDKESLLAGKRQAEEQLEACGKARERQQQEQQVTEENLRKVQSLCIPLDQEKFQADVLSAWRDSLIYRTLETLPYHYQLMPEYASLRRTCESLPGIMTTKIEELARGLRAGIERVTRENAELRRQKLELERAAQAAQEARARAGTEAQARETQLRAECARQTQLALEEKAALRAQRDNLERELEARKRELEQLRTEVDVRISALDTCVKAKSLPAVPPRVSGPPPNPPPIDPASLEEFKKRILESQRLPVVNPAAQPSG
Assay: not described

B1: murine monoclonal antibody STW-139-15 (antibody, V domains shown)
VH: QVQLQQSGAELVKPGASVKLSCKASGYTFTDYYMYWVKQRPGQGLELIGEINPTNGDVNFNEMFKSKATLTVDTSSRTAYMQLSSLTSEDSAVYYCTSIHYWGQGTLVTVSA
VL: DIVMTQSPSSMYASLGERITITCKASQDIKTNLSWYQQKPWKSPKTLIYYATDLADGVPSRFSGSGSGQYFSLTISSLESDDTATYYCLQHDDRPFTFGSGTKLEIK
B1: no binding.
